Test results taken from patent publication US20210380703A1 (RIGEL PHARMACEUTICALS, published 2021).
Changes are numbered by the printed parent chain.

B1: 370_F08 (antibody, V domains shown)
VH: EVQLLESGGGLVQPGGSLRLSCAASGFTFDSYSMNWVRQAPGKGLEWVAGINYNGGYTSYADSVKGRFTISRDNSKNTLYLQMNSLRAEDTAVYYCARSATWHDTHLDYWGQGTLVTVSS
VL: DIQMTQSPSSLSASVGDRVTITCRASQSIISYVNWYQQKPGKAPKLLIYAATSRHSGVPSRFSGSGSGTDFTLTISSLQPEDFATYYCQQSYNLPLTFGGGTKVEIK
notes: VH/VL only
B2: 374_A11 (antibody, V domains shown)
VH: B1 VH with D30S, S31D, G50N, G55S, T58K, S59G
VL: B1 VL with I30L, L47V, H55A, N93S, L94S
notes: VH/VL only
B3: 373_G05 (antibody, V domains shown)
VH: B1 VH with D30S
VL: B1 VL with I30L, V33L, R54L, H55A, N93E
notes: VH/VL only
B4: 370_H03 (antibody, V domains shown)
VH: B1 VH with G55S, T58K, S59G
VL: B1 VL with I30L, S31T, V33L, R54L, H55A, N93D, L94T
notes: VH/VL only
B5: 373_E06 (antibody, V domains shown)
VH: B1 VH with G55S, T58K
VL: B1 VL with I30L, S31R, V33L, R54L, N93D, L94N
notes: VH/VL only
B6: 371_H01 (antibody, V domains shown)
VH: B1 VH with S59G
VL: not shown
notes: VH/VL only
B7: 374_B09 (antibody, V domains shown)
VH: B1 VH with D30S, A49S, T58K
VL: B1 VL with I30V, S31R, V33L, L47V, R54L, H55A, N93E
notes: VH/VL only
B8: 374_D12 (antibody, V domains shown)
VH: B1 VH with A49S, S59G
VL: B1 VL with I30V, L47V, H55A, N93D
notes: VH/VL only
B9: 372_F07 (antibody, V domains shown)
VH: B1 VH with S31D, G55S, T58K, S59G
VL: B1 VL with I30L, S31T, V33L, L47V, H55A, N93E
notes: VH/VL only
B10: 371_F05 (antibody, V domains shown)
VH: B1 VH with D30S, G55S, T58K
VL: B1 VL with I30L, V33L, N93E, L94N
notes: VH/VL only
B11: 374_C04 (antibody, V domains shown)
VH: B1 VH with D30S, G55S, T58K
VL: B1 VL with I30L, S31T, V33L, T52S, R54L, H55Q, N93E
notes: VH/VL only
B12: 373_B11 (antibody, V domains shown)
VH: B1 VH with D30S, G50N, G55S, T58K, S59G
VL: B1 VL with I30L, V33L, H55A, N93D, L94N
notes: VH/VL only
B13: 374_C08 (antibody, V domains shown)
VH: B1 VH with S33G, A49S, G55S, T58K, H106A
VL: B1 VL with I30L, A51V, H55A, N93D, L94S
notes: VH/VL only
B14: 373_E04 (antibody, V domains shown)
VH: B1 VH
VL: B1 VL with I30L, S31T, H55A, L94S
notes: VH/VL only
B15: 374_D02 (antibody, V domains shown)
VH: B1 VH with G55S
VL: B1 VL with I30S, S31T, A51V, R54L, H55A, N93D, L94S
notes: VH/VL only
B16: 373_B03 (antibody, V domains shown)
VH: B1 VH with D30S, G55S, T58K
VL: B1 VL with I30L, S31T, V33L, L47V, R54L, H55A, N93D, L94N
notes: VH/VL only
B17: 373_H10 (antibody, V domains shown)
VH: B1 VH with D30S, S59G
VL: B1 VL with I30L, H55A, N93S
notes: VH/VL only
B18: 371_D03 (antibody, V domains shown)
VH: B1 VH with S33G, G50N, H106A
VL: B1 VL with I30L, S31T, L47V, R54L, H55A, L94T
notes: VH/VL only
B19: 371_G03 (antibody, V domains shown)
VH: B1 VH with D30S, S33G, G50N, T58K, S59G
VL: B1 VL with I30V, S31T, L47V, R54L, H55A
notes: VH/VL only
B20: 372_D04 (antibody, V domains shown)
VH: B1 VH with D30S, G50N, G55S, S59G
VL: B1 VL with I30L, S31T, V33L, R54L, N93D
notes: VH/VL only
B21: 371_C09 (antibody, V domains shown)
VH: B1 VH with A49S, T58K
VL: B1 VL with I30L, S31T, T52S, R54L, H55Q, N93D, L94N
notes: VH/VL only
B22: 373_E02 (antibody, V domains shown)
VH: B1 VH with S33G, N35H, A49S, T58K, S59G
VL: not shown
notes: VH/VL only
B23: 373_E03 (antibody, V domains shown)
VH: B1 VH with S33G, A49S, G50N, S59G, H106A
VL: B1 VL with I30L, L47V, H55A, N93D
notes: VH/VL only
B24: 370_G12 (antibody, V domains shown)
VH: B1 VH with D30S, T58K, S59G, H106A
VL: B1 VL with S31T, V33L, R54L, H55A, Y92D, N93E, L94S
notes: VH/VL only
B25: 373_H06 (antibody, V domains shown)
VH: B1 VH with D30S, S33G, N35H
VL: B1 VL with R54L, H55A, N93D
notes: VH/VL only
B26: 373_F03 (antibody, V domains shown)
VH: B1 VH with G50N, G55S, S59G
VL: B1 VL with I30L, S31T, N93D, L94S
notes: VH/VL only
B27: 374_C05 (antibody, V domains shown)
VH: B1 VH with G55S, T58K
VL: B1 VL with S31R, V33L, L47V, H55A, N93D, L94N
notes: VH/VL only
B28: 373_C09 (antibody, V domains shown)
VH: B1 VH with G55S, T58K
VL: B1 VL with I30L, S31T, V33L, L47V, H55A, N93E
notes: VH/VL only
B29: 374_E02 (antibody, V domains shown)
VH: B1 VH with D30S, A49S, T101N, H106A
VL: B1 VL with I30L, V33L, R54L, H55A, N93D
notes: VH/VL only
B30: 373_B08 (antibody, V domains shown)
VH: B1 VH with G50N, G55S, T58K, S59G
VL: B1 VL with I30L, S31T, V33L, L47V, R54L, H55A, N93E, L94N
notes: VH/VL only
B31: 374_E08 (antibody, V domains shown)
VH: B1 VH with D30S, S33G, T58K, T101N, H106A
VL: B1 VL with I30L, V33L, N93D
notes: VH/VL only
B32: 374_E05 (antibody, V domains shown)
VH: B1 VH with D30S, T101N, H106A
VL: B1 VL with I30L, Y32F, L47V, H55A
notes: VH/VL only
B33: 374_C02 (antibody, V domains shown)
VH: B1 VH with A49S, S59G
VL: B1 VL with I30L, V33L, N93D, L94S
notes: VH/VL only
B34: 374_E07 (antibody, V domains shown)
VH: B1 VH with D30S, S31D, T101N, H106A
VL: B1 VL with S31T, L47V, H55A, L94T
notes: VH/VL only
B35: 374_C11 (antibody, V domains shown)
VH: B1 VH with D30S, G55S, T58K, S59G
VL: B1 VL with I30L, S31T, V33L, H55A, N93E, L94S
notes: VH/VL only

Key:
mouse ACVR2A = mouse ACVR2A (mouse, UniProt P27038 20-135, limits assumed); experiment: ELISA
mouse ACVR2A, sequence (P27038 20-135 limits assumed): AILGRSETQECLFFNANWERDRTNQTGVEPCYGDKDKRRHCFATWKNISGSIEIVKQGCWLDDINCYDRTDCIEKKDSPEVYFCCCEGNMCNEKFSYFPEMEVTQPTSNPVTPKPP
Procedure, shortened: (§1)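 mAb binding by ELISA; antigens: hu ACVR2A, mu ACVR2A; pos ctrl biotinylated goat anti-hu kappa LC; neg ctrl hu Fc.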

human ACVR2A = human ACVR2A (human, UniProt P27037 20-135, limits assumed); experiment: ELISA
human ACVR2A, sequence (P27037 20-135 limits assumed): as the sequence (P27038 20-135 limits assumed) above, with R20K, I73V counted along it
Procedure, shortened: as §1

[1] = target: T1, biotinylated goat anti-human kappa light chain; experiment: ELISA; positive control
T1 construct: Positive control of the ELISA
Procedure, shortened: as §1
Also: test concentration or dose not given here.

| Binder | optical density (mouse ACVR2A) [OD] | optical density (human ACVR2A) [OD] | optical density [1] [OD] |
| --- | --- | --- | --- |
| B1 | 2.99 | 2.34 | 3.59 |
| B2 | 3.72 | 3.65 | 2.81 |
| B3 | 3.62 | 3.61 | 3.22 |
| B4 | 3.56 | 3.43 | 3.56 |
| B5 | 3.64 | 3.71 | 3.22 |
| B6 | 3 | 3.03 | 3.69 |
| B7 | 3.65 | 3.62 | 3.19 |
| B8 | 3.28 | 3.55 | 3.09 |
| B9 | 3.24 | 3.25 | 3.4 |
| B10 | 3.15 | 2.89 | 3.33 |
| B11 | 3.74 | 3.74 | 3.17 |
| B12 | 3.65 | 3.72 | 3.22 |
| B13 | 3.42 | 3.29 | 3.18 |
| B14 | 3.55 | 3.56 | 3.3 |
| B15 | 3.2 | 3.06 | 2.99 |
| B16 | 3.62 | 3.64 | 3.16 |
| B17 | 3.25 | 3.24 | 3.19 |
| B18 | 1.83 | 1.54 | 3.57 |

| Binder | optical density (mouse ACVR2A) [OD] | optical density (human ACVR2A) [OD] | optical density [1] [OD] |
| --- | --- | --- | --- |
| B19 | 3.27 | 3.12 | 3.59 |
| B20 | 3.41 | 3.4 | 3.38 |
| B21 | 3.29 | 3.37 | 3.39 |
| B22 | 3.64 | 3.61 | 2.92 |
| B23 | 3.46 | 3.46 | 3.25 |
| B24 | 1.6 | 1.34 | 3.52 |
| B25 | 3.15 | 3 | 3.3 |
| B26 | 3.6 | 3.65 | 3.21 |
| B27 | 3.69 | 3.7 | 3.18 |
| B28 | 3.6 | 3.64 | 3.22 |
| B29 | 3.33 | 3.23 | 3.18 |
| B30 | 3.66 | 3.7 | 3.22 |
| B31 | 3.52 | 3.5 | 3.26 |
| B32 | 3.57 | 3.56 | 3.18 |
| B33 | 3.64 | 3.68 | 3.06 |
| B34 | 3.58 | 3.63 | 3.2 |
| B35 | 3.59 | 3.64 | 3.21 |
